Here are results for two molecules from patent US20260275311, “CRISPR NUCLEASE POLYPEPTIDES AND GENE EDITING SYSTEMS COMPRISING SUCH” (ARBOR BIOTECHNOLOGIES, INC., published 2026).

Residue numbers refer to the chain shown, from its start.

Holding throughout (details): tags: N-terminal SV40 NLS, C-terminal XTEN linker + nucleoplasmin NLS
One data set concerns the target T1, Nuclease A.
T1 chain: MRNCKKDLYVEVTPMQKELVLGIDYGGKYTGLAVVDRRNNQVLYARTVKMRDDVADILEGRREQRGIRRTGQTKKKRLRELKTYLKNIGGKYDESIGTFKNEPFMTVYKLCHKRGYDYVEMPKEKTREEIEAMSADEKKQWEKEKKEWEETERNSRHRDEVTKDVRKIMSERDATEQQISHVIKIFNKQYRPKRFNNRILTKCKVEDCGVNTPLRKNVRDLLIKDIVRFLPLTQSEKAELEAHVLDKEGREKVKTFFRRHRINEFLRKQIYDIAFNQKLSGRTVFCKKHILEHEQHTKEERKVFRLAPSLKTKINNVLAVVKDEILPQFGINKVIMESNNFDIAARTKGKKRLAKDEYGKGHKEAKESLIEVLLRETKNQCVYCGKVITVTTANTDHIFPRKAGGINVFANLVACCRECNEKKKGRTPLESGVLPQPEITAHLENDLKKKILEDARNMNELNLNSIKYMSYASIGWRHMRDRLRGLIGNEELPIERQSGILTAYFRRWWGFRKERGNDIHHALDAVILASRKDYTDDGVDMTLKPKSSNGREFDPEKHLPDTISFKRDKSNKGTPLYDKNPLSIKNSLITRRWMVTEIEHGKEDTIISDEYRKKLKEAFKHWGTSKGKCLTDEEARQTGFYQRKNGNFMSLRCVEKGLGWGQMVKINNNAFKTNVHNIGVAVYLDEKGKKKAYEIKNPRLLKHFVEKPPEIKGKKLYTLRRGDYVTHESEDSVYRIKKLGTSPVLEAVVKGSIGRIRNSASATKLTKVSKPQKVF
Description: cell_activity; PAM NGG (AGG); HEK293T. The method, then:
(§1) Approximately 16 hours prior to transfection, 25,000 HEK293T cells in DMEM/10% FBS+Pen/Strep (D10 media) were plated into each well of a 96-well plate. On the day of transfection, the cells were 50-90% confluent. For each well to be transfected, a mixture of Lipofectamine 2000™ (ThermoFisher Scientific) and Opti-MEM™ (ThermoFisher Scientific) was prepared and incubated at room temperature for 5 minutes (Solution 1). After incubation, the Lipofectamine 2000™: Opti-MEM™ mixture was added to a separate mixture containing the CRISPR nuclease plasmid (NLS-tagged), RNA guide plasmid, and Opti-MEM™ (Solution 2). In the case of negative controls, the CRISPR nuclease plasmid was excluded. Solutions 1 and 2 were mixed by pipetting up and down, then incubated at room temperature for 25 minutes. Following incubation, the Solution 1 and 2 mixture was added dropwise to each well of a 96-well plate containing the cells. Approximately 72 hours post transfection, cells were trypsinized by adding TrypLE™ (ThermoFisher Scientific) to the center of each well and incubating at 37° C. for approximately 5 minutes. D10 media was then added to each well and mixed to resuspend cells. The resuspended cells were centrifuged for 10 minutes to obtain a pellet, and the supernatant was discarded. The cell pellet was then resuspended in QuickExtract™ buffer (Lucigen®), and cells were incubated at 65° C. for 15 minutes, 68° C. for 15 minutes, and 98° C. for 10 minutes.
(§2) Each Nuclease A variant and RNA guide (see Table 5) was cloned as described in Example 2. HEK293T cells were further transfected, followed by NGS analysis, as described in Example 2. For each target, indel ratios, referring to the percentage of NGS reads comprising indels, were calculated for Nuclease A (SEQ ID NO: 1) and for each variant of Nuclease A. The indel ratios shown in Table 6 were calculated as the average of two bioreplicates, each of which contained two technical replicates.

In data set [1] the target is T2, Nuclease A I67R/D568R/E706R.
T2 chain: T1 chain with I67R, D568R, E706R
Description: cell_activity; PAM NGG (AGG); HEK293T. The method, then:
as §1, §2

In the next data set the target is T3, Nuclease A I67R (I67R).
T3 chain: T1 chain with I67R
In words: cell_activity; PAM NGG; HEK293T.

B1: Nuclease A AAVS1-T3 guide ; AAVS1-T3 target (ssRNA ; dsDNA)
RNA: UUGUGAGAAUGGUGCGUCCUGUUACAGUUAAGGCUCUUUGGAAACAAAGAAGCCUUAAUUGUAAAACGCCUAUAUGGUAAAGUGAUGUACGUUUGGGUAUAUAUCGCCAGCCUGAACCUCUACGCCAGAAAUGGCAGCUUUAUCAUGGGUUAGGACGAUAUUUAAAAAACUUUCUGCGGCUUGCUUACUUUAGUAAGCUUUGUGGCUGAGGCAGAAUUCCUU
DNA 1: TTGTGAGAATGGTGCGTCCT
DNA 2: AGGACGCACCATTCTCACAA
For B1, the figures for the activity (with Nuclease A; in data set [1]) were 0.044 indel ratio and 0.37 indel ratio, respectively. Further, the binding signal with Nuclease A I67R turned out to be 7.07 fold vs Nuclease A.

B2: Nuclease A VEGFA-T6 guide ; VEGFA-T6 target (ssRNA ; dsDNA)
RNA: UUUGCCCAUACUGGGGACCAGUUACAGUUAAGGCUCUUUGGAAACAAAGAAGCCUUAAUUGUAAAACGCCUAUAUGGUAAAGUGAUGUACGUUUGGGUAUAUAUCGCCAGCCUGAACCUCUACGCCAGAAAUGGCAGCUUUAUCAUGGGUUAGGACGAUAUUUAAAAAACUUUCUGCGGCUUGCUUACUUUAGUAAGCUUUGUGGCUGAGGCAGAAUUCCUU
DNA 1: TTTGCCCATACTGGGGACCA
DNA 2: TGGTCCCCAGTATGGGCAAA
With B2, the activity in the data set with Nuclease A turned out to be 0.049 indel ratio; in data set [1] it was 0.325 indel ratio. For the same molecule, the binding signal in the data set with Nuclease A I67R amounted to 4.43 fold vs Nuclease A.
